Measured values reported in patent publication US20050272637A1 (OREGON HEALTH AND SCIENCE UNIVERSITY, published 2005).
Numbering of substitutions follows the chain as printed. Blank lines part the entries; values can stand above or below the binder they belong to.

Assays:
[1] = target: T1, IGF-1R, insulin-like growth factor 1 receptor (human, UniProt P08069 31-1367); assay: saturation binding to IGF-IR 3T3 cells, herstatin ELISA (determination of EXAMPLE 2)
T1 construct: On IGF-IR transfected 3T3 cells (hIGF-1R-3T3) in cell ELISA, or from their extracts in pull-downs (detected through the beta subunit); The entry is the precursor; the processing into alpha and beta subunits is not described; also called IGF-IR; IGF-1 receptor
T1 sequence (P08069 31-1367 limits assumed): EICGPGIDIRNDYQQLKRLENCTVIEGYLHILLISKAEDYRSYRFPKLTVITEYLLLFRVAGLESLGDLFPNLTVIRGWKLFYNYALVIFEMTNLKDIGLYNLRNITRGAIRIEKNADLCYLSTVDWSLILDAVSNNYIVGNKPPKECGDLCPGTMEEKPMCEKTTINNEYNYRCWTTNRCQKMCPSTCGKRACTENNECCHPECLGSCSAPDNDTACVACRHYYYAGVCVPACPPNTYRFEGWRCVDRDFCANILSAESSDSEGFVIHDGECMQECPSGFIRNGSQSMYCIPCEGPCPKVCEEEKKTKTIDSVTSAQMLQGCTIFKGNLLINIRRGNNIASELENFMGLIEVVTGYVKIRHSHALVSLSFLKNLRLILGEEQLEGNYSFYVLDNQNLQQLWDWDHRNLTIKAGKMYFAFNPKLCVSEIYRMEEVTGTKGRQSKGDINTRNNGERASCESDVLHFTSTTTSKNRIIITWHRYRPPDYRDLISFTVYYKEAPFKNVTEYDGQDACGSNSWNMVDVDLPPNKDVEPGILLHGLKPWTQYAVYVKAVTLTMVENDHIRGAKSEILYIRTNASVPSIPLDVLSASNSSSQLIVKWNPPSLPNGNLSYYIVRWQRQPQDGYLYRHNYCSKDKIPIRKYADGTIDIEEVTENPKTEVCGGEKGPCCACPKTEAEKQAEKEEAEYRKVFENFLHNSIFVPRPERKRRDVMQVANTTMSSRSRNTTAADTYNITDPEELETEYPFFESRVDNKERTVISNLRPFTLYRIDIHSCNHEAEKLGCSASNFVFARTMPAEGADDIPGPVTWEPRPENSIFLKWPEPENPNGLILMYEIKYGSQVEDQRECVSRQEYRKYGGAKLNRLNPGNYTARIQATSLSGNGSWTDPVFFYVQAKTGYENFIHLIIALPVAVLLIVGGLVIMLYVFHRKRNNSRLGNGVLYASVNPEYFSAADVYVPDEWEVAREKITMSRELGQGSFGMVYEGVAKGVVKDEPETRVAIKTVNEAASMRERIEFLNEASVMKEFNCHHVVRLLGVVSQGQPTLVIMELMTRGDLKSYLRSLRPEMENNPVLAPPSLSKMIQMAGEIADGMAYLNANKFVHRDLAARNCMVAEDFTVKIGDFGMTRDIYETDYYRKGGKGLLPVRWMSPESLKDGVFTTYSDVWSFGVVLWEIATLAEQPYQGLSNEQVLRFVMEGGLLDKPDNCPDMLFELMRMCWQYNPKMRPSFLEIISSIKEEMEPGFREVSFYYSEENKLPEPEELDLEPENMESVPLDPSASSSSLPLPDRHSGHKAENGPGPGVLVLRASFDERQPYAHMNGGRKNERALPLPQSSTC
Procedure: (§1) ELISA. […] Cells were washed with Phosphate Buffered Saline (PBS) and extracted in 50 mM Tris-HCl, pH 7.0, 1.0% NP-40.
(§2) Statistical comparisons between different binding curves were performed by extra sums-of-squares F-test nonlinear regression coefficients. All tests were performed (α=0.05) using GraphPad Prism 4™ software (GraphPad™ Software, 1994-2003).

[2] = target: T2, EGFR (HER-1, erbB-1), human epidermal growth factor receptor (human, UniProt P00533 25-1210); assay: saturation binding to EGFR-transfected Cos-7 cells, herstatin ELISA, nonlinear regression (FIG. 5A)
T2 construct: also called EGF receptor
Procedure: as §1, §2

[3] = target: T3, HER-2 (erbB-2), human receptor (human, UniProt P04626 23-1255); assay: saturation binding to HER-2/3T3 cells, herstatin ELISA, nonlinear regression (FIG. 5B)
T3 construct: On HER-2-transfected Cos-7 cells or 3T3/HER-2 cells (cell ELISA), or from transfected Cos-7 cell extracts (pull-down)
Procedure: as §1, §2

[4] = target: T1, IGF-1R, insulin-like growth factor 1 …; assay: saturation binding to IGF-IR transfected 3T3 cells, herstatin ELISA, nonlinear regression
Procedure: as §1, §2

[5] = target: HER-4 (erbB-4), human receptor (human, UniProt Q15303 26-1308); assay: ELISA of Int8 bound to transfected cells (FIG. 3B)
Chain of HER-4 (erbB-4), human receptor (Q15303 26-1308 limits assumed): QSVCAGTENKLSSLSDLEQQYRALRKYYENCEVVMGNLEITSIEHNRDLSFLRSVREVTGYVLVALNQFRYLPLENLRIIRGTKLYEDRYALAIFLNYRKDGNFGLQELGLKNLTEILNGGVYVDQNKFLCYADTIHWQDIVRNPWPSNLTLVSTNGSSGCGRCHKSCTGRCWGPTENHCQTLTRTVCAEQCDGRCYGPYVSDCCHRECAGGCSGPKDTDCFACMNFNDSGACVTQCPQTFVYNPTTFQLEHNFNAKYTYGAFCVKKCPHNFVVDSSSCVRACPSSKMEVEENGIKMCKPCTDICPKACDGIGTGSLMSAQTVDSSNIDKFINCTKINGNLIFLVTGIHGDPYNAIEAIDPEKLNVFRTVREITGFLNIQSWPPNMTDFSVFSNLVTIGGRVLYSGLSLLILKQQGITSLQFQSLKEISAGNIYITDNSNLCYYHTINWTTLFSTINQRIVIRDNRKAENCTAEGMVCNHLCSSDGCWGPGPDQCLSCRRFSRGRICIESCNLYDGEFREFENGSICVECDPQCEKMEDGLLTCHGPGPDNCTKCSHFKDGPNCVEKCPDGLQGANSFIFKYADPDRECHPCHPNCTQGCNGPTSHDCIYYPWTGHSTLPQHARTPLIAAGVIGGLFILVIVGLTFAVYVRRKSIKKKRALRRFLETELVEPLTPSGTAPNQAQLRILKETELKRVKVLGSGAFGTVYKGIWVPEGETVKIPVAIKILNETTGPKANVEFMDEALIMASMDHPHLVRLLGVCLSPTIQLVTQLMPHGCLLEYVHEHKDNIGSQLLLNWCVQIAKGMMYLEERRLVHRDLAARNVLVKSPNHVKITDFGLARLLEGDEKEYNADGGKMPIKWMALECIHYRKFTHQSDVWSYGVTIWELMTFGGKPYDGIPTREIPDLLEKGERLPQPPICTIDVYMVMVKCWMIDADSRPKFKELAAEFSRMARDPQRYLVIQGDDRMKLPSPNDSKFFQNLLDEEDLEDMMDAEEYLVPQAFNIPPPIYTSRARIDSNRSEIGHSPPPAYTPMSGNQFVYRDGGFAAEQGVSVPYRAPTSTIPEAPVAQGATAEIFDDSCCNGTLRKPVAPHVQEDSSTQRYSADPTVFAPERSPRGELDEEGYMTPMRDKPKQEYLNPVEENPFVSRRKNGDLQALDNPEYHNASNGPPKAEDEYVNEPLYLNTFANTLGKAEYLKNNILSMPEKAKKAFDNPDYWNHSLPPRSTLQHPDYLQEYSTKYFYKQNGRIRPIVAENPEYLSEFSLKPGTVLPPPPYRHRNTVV
Procedure: as §1

[6] = target: T3, HER-2 (erbB-2), human receptor; assay: saturation binding to HER-2-transfected Cos-7 cells, herstatin ELISA, nonlinear regression (FIG. 5A)
Procedure: as §1, §2

[7] = target: T1, IGF-1R, insulin-like growth factor 1 …; assay: saturation binding to IGF-IR/3T3 cells, herstatin ELISA, nonlinear regression (FIG. 5B)
Procedure: as §1, §2

[8] = target: T3, HER-2 (erbB-2), human receptor; assay: herstatin ELISA of peptide bound to HER-2 overexpressing cells
Procedure: as §1

[9] = target: T3, HER-2 (erbB-2), human receptor; assay: pull-down of HER-2 from transfected cell extracts, Western blot
Procedure: Methods. Cell lines, expression vectors, protein purification, pull down assays, antibodies and ELISA assays were as described under EXAMPLE 1, herein above. […] Following washing steps, the protein bound to the agarose was analyzed as a Western blot with receptor-specific antibodies.

Kd [1]: 40 nM
Kd [2]: 78 nM
Kd [3]: 66 nM
Kd [4]: 40 to 150 nM
binding result [5]: binds
Kd [6]: 50 nM
Kd [7]: 70 nM
B1: RBD Int8 polypeptide (intron 8-encoded receptor binding domain of herstatin, expressed as a bacterial peptide) (peptide)
chain: GTHSLPPRPAAVPVPLRMQPGPAHPVLSFLRPSWDLVSAFYSLPLAPLSPTSVPISPVSVGRGPDPDAHVAVDLSRYEG
notes: Purified from BL-21 bacteria; also called Int8 RBD polypeptide; Int8 peptide; not shown: pET 30 vector-encoded tags (His tag used for nickel purification, S-protein tag used for immobilisation)

fold weaker binding than the wildtype peptide [8]: ~2 fold
fold weaker binding than the wild type sequence (SEQ ID NO:24) [9]: ~2 fold
B2: mutant Int8 polypeptide with Arg to Ile mutation at residue 31 (peptide, not shown: small tags and cut ends)
chain: B1 chain with R31I
notes: also called mutant RBD Int8 polypeptide; mutant Int8 RBD polypeptide
